Assay results from paper PMC3551999.

Assays:
TBP = TBP (human, UniProt P20226 1-339); assay: smFRET
TBP;TFIIA = TBP;TFIIA (human;human, UniProt P20226;P52655;P52657 1-339;1-376;1-109, |); assay: smFRET
Sequence of TBP;TFIIA (P20226 whole entry, chain 1 of 3): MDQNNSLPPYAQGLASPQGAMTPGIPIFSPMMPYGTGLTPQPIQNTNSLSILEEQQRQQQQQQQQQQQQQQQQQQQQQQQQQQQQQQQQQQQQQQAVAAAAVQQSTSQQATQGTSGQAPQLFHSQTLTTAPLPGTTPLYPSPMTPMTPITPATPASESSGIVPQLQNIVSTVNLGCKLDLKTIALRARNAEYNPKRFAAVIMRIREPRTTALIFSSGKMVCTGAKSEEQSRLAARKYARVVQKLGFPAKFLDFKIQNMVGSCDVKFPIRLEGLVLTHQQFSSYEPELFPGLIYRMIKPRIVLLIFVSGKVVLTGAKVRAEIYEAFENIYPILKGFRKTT
Sequence of TBP;TFIIA (P52655 whole entry, chain 2 of 3): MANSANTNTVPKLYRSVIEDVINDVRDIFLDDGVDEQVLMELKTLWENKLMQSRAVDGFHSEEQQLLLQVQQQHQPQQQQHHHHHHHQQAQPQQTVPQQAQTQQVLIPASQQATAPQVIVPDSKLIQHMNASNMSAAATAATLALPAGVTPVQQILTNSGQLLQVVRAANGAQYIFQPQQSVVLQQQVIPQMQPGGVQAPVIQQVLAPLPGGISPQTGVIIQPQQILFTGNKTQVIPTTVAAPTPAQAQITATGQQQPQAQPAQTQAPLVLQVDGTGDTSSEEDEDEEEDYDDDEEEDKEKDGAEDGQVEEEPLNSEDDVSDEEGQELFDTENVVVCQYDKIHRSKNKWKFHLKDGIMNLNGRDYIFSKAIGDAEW
Sequence of TBP;TFIIA (P52657 whole entry, chain 3 of 3): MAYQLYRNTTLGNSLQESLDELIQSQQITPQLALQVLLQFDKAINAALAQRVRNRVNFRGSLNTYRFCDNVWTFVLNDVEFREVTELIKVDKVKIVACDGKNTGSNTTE

Sequence of TBP (P20226 whole entry): as the sequence (P20226 whole entry, chain 1 of 3) above

B1: TATA(A3) smFRET construct (mixed)
DNA 1: CAGGCTAAAAAAGGGACG
DNA 2: CGTCCCTTTTTTAGCCTGCACCACCACCACCACCACCA
DNA 3: TGGTGGTGGTGGTGGTGGT
Question: Which results are given for B1?
Answer: binding result (TBP): binds; binding result (TBP;TFIIA): binds
